Assay results published in article PMC12350170, “Structural basis for the synergistic assembly of the snRNA export complex” (Nature Structural & Molecular Biology, 2025).

B1: MBP-PHAX103–196 (wild type) [human] / Human nuclear cap-binding complex (CBC): CBP80ΔNLS with CBP20 [human] (parent)
chain 1: SQKPPVAGGKKINNIWGAVLQEQNQDAVATELGILGMEGTIDRSRQSETYNYLLAKKLRKESQEHTKDLDKELDEYMHGGKKMGSKEEENGQGH
chain 2: KTSDANETEDHLESLICKVGEKSACSLESNLEGLAGVLEADLPNYKSKILRLLCTVARLLPEKLTIYTTLVGLLNARNYNFGGEFVEAMIRQLKESLKANNYNEAVYLVRFLSDLVNCHVIAAPSMVAMFENFVSVTQEEDVPQVRRDWYVYAFLSSLPWVGKELYEKKDAEMDRIFANTESYLKRRQKTHVPMLQVWTADKPHPQEEYLDCLWAQIQKLKKDRWQERHILRPYLAFDSILCEALQHNLPPFTPPPHTEDSVYPMPRVIFRMFDYTDDPEGPVMPGSHSVERFVIEENLHCIIKSHWKERKTCAAQLVSYPGKNKIPLNYHIVEVIFAELFQLPAPPHIDVMYTTLLIELCKLQPGSLPQVLAQATEMLYMRLDTMNTTCVDRFINWFSHHLSNFQFRWSWEDWSDCLSQDPESPKPKFVREVLEKCMRLSYHQRILDIVPPTFSALCPANPTCIYKYGDESSNSLPGHSVALCLAVAFKSKATNDEIFSILKDVPNPNQDDDDDEGFSFNPLKIEVFVQTLLHLAAKSFSHSFSALAKFHEVFKTLAESDEGKLHVLRVMFEVWRNHPQMIAVLVDKMIRTQIVDCAAVANWIFSSELSRDFTRLFVWEILHSTIRKMNKHVLKIQKELEEAKEKLARQHKRRSDDDDRSSDRKDGVLEEQIERLQEKVESAQSEQKNLFLVIFQRFIMILTEHLVRCETDGTSVLTPWYKNCIERLQQIFLQHHQIIQQYMVTLENLLFTAELDPHILAVFQQFCALQA
chain 3: MSGGLLKALRSDSYVELSQYRDQHFRGDNEEQEKLLKKSCTLYVGNLSFYTTEEQIYELFSKSGDIKKIIMGLDKMKKTACGFCFVEYYSRADAENAMRYINGTRLDDRIIRTDWDAGFKEGRQYGRGRSGGQVRDEYRQDYDAGRGGYGKLAQNQ

Variants of: B1
Assay: ITC
Conditions: CBC pre-bound to the cap analog m7GpppG

Kd [nM] | Variant
1970 | chain 1 SQKPPVAGGKKINNIWGAVLQEQNQDAVATELGILGMEGTIDRSEQSETENELLAKKLRKESQEHTKDLDKELDEYMHGGKKMGSKEEENGQGH

Same assay, conditions: CBC pre-bound to the cap analog m7GpppG (row 'CBC-m7GpppG + PHAX103–196 (R147E, Y152E, Y154E)')

Kd [nM] | Variant
1970 | chain 1 SQKPPVAGGKKINNIWGAVLQEQNQDAVATELGILGMEGTIDRSEQSETENELLAKKLRKESQEHTKDLDKELDEYMHGGKKMGSKEEENGQGH
